From the supplement of paper PMC7125110
± gives the standard error. Variants at the floor of the assay were thinned out.

B1: glmS ribozyme (parent)
chain: AUAAAAGCGCCAGAACUACAGAAAUGUAGUUGACGAGGAGGAGGUUUAUCGAAUUUUCGGCGGAUGCCUCCAAA

Assays:
Conditions in all cases: with glucosamine-6-phosphate
[1] = variants of: B1; assay: self-cleavage kobs at 40 uM GlcN6P; higher = faster cleavage; RNA array
Summary of the method: (§1)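 Weighted Michaelis–Menten fits across concentrations supplied kcat and KM, based on kobs from one- or two-exponential decay fits to normalised per-tile medians. The data came from barcoded ribozyme variants transcribed in situ by E. coli RNA polymerase on sequenced MiSeq chips and tracked at 37 °C by a hybridised Cy3 probe. Glucosamine-6-phosphate (40 μM to 10 mM) in HEPES/KCl/Mg(OAc)2 buffer was flowed in.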

[2] = variants of: B1; assay: self-cleavage kobs at 2500 uM GlcN6P; higher = faster cleavage; RNA array
Summary of the method: as §1

[3] = variants of: B1; assay: self-cleavage kobs at 160 uM GlcN6P; higher = faster cleavage; RNA array
Summary of the method: as §1

[4] = variants of: B1; assay: self-cleavage kobs at 640 uM GlcN6P; higher = faster cleavage; RNA array
Summary of the method: as §1

[5] = variants of: B1; assay: self-cleavage kobs at 10000 uM GlcN6P; higher = faster cleavage; RNA array
Summary of the method: as §1

Row | Variant | self-cleavage kobs at 40 uM GlcN6P [1] [s⁻¹] | self-cleavage kobs at 2500 uM GlcN6P [2] [s⁻¹] | self-cleavage kobs at 160 uM GlcN6P [3] [s⁻¹] | self-cleavage kobs at 640 uM GlcN6P [4] [s⁻¹] | self-cleavage kobs at 10000 uM GlcN6P [5] [s⁻¹]
1 | A52C G62U C71A | < 1e-05 | < 1e-05 | – | – | –
2 | A52G G62C | < 1e-05 | – | < 1e-05 | < 1e-05 | < 1e-05
3 | G51C G60U | < 1e-05 | – | < 1e-05 | < 1e-05 | < 1e-05
4 | C50G G51U | < 1e-05 | – | < 1e-05 | – | –
5 | U49C C58U | < 1e-05 | < 1e-05 | < 1e-05 | < 1e-05 | < 1e-05
6 | U49C G66A | < 1e-05 | – | – | – | < 1e-05
7 | U55C C61U | < 1e-05 | – | – | – | –
8 | A48C A52U C70A | < 1e-05 | – | – | – | –
9 | G51U A53C C67G | < 1e-05 | – | – | – | –
10 | A48C G51U C58G | < 1e-05 | – | – | – | –
11 | G51U G62C | < 1e-05 | < 1e-05 | – | < 1e-05 | < 1e-05
12 | U55G C71U | 0.00104 ± 0.00015 | 0.0044 ± 0.00066 | 0.00128 ± 0.00022 | 0.00353 ± 0.0005 | 0.034 ± 0.0078
13 | U49A C50G C68G | 9.07e-05 ± 3.4e-05 | – | – | – | –
14 | C50U U57A G60U | < 1e-05 | – | – | – | < 1e-05
15 | U54G U65G C67G | 3.01e-05 ± 1.5e-05 | – | – | – | 0.00213 ± 0.00029
16 | C50A G62U G63A | < 1e-05 | < 1e-05 | < 1e-05 | < 1e-05 | < 1e-05
17 | A53U U55A C67G | 0.000155 ± 4.4e-05 | – | – | – | 0.00212 ± 0.00067
18 | C58A U65A C67G | < 1e-05 | – | – | – | –
19 | G51C U57G | < 1e-05 | < 1e-05 | < 1e-05 | < 1e-05 | –
20 | C50G G62U | 0.00036 ± 0.00014 | – | 0.000115 ± 1.8e-05 | 0.000122 ± 2.7e-05 | 3.35e-05 ± 1e-05
21 | A53U C68U | 0.000159 ± 2.1e-05 | 0.00421 ± 0.00073 | 0.000357 ± 0.00011 | 0.000788 ± 9.5e-05 | 0.00507 ± 0.00083
22 | U56A U65G | 3.75e-05 ± 1.4e-05 | – | – | 0.000348 ± 0.00011 | 0.00196 ± 0.00027
23 | G51C G60U A64U | < 1e-05 | – | – | – | –

Row | Variant | self-cleavage kobs at 40 uM GlcN6P [1] [s⁻¹] | self-cleavage kobs at 2500 uM GlcN6P [2] [s⁻¹] | self-cleavage kobs at 160 uM GlcN6P [3] [s⁻¹] | self-cleavage kobs at 640 uM GlcN6P [4] [s⁻¹] | self-cleavage kobs at 10000 uM GlcN6P [5] [s⁻¹]
24 | A48U A52G G63A | < 1e-05 | – | – | – | < 1e-05
25 | A52G U54G C61G | < 1e-05 | – | – | – | –
26 | U49G U55G U65G | < 1e-05 | – | – | – | 6.42e-05 ± 1.5e-05
27 | C58G C68G | 3.25e-05 ± 1.1e-05 | 9.87e-05 ± 1.7e-05 | 6.63e-05 ± 1.4e-05 | 9.11e-05 ± 1.1e-05 | 1.82e-05 ± 7.1e-06
28 | U56C U57G | < 1e-05 | 2.91e-05 ± 1.2e-05 | – | – | 8.26e-05 ± 2.1e-05
29 | U54C C71U | 0.000802 ± 8.6e-05 | 0.0101 ± 0.0027 | 0.00142 ± 0.00023 | 0.00401 ± 0.00061 | 0.036 ± 0.0094
30 | C50G C71A | 0.00184 ± 0.00076 | 0.000153 ± 1.4e-05 | 0.000128 ± 1.3e-05 | 0.000215 ± 2e-05 | –
31 | U56G G63C | < 1e-05 | – | < 1e-05 | < 1e-05 | < 1e-05
32 | A52U G63C A64U | < 1e-05 | < 1e-05 | – | – | –
33 | G51C A64U | < 1e-05 | – | < 1e-05 | < 1e-05 | < 1e-05
34 | A52G G60C | < 1e-05 | < 1e-05 | < 1e-05 | < 1e-05 | –
35 | U49C G63A C67G | < 1e-05 | – | – | – | < 1e-05
36 | U49C G59A C67G | < 1e-05 | – | < 1e-05 | < 1e-05 | < 1e-05
37 | C50U G59C | < 1e-05 | < 1e-05 | < 1e-05 | < 1e-05 | < 1e-05
38 | A48G A64U | < 1e-05 | – | < 1e-05 | < 1e-05 | < 1e-05
39 | U55G C70U | 0.0011 ± 0.00013 | – | 0.00151 ± 0.00031 | 0.0043 ± 0.0011 | –
40 | A53G G66A C67A | 0.000154 ± 2.9e-05 | 0.0011 ± 0.0002 | – | – | 0.0038 ± 0.00083
41 | U54C U56A | 0.000356 ± 6.9e-05 | 0.00483 ± 0.00092 | 0.000584 ± 0.00011 | 0.00291 ± 0.00036 | 0.0163 ± 0.0038
42 | A48G U69A | < 1e-05 | – | – | – | –
43 | C50G C61A A64U | 9.82e-05 ± 1.8e-05 | – | – | – | 0.000113 ± 1.8e-05
44 | U47G A52U U69G | 4.05e-05 ± 1.5e-05 | – | – | – | 3.79e-05 ± 1.3e-05
45 | U57A G63U C70G | < 1e-05 | – | – | – | –
